{"source": "paper PMC10693595", "about": "(2023)", "parents": {"B1": {"name": "human VZV neutralizing mAb 93k [modified: Cy5-conjugated] [human] / VZV glycoprotein B, wild type [varicella-zoster virus (VZV)] (parent complex)", "chain 1": "QVQLVQSGAEVKKPGSSVKVSCKASGGTFSNFAISWVRQAPGQGLEWMGRIMPLFVTSTYAQKFQGRVTISADASTSTAYMELSSLRSDDTAMYYCARDITAPGAAPTPLNFYGMDVWGQGTTVTVSS", "chain 2": "DIQMTQSPSTLSASVGDRVTITCRASQTISTWLAWYQQTPRKAPKLMIYKASILENGVPSRFSGSGSGTEFTLTISSLQPEDFATYYCQQYKSYPWTFGQGTKVEI", "chain 3": "VSPSSFYESLQVEPTQSEDITRSAHLGDGDEIREAIHKSQDAETKPTFYVCPPPTGSTIVRLEPTRTCPDYHLGKNFTEGIAVVYKENIAAYKFKATVYYKDVIVSTAWAGSSYTQITNRYADRVPIPVSEITDTIDKFGKCSSKATYVRNNHKVEAFNEDKNPQDMPLIASKYNSVGSKAWHTTNDTYMVAGTPGTYRTGTSVNCIIEEVEARSIFPYDSFGLSTGDIIYMSPFFGLRDGAYREHSNYAMDRFHQFEGYRQRDLDTRALLEPAARNFLVTPHLTVGWNWKPKRTEVCSLVKWREVEDVVRDEYAHNFRFTMKTLSTTFISETNEFNLNQIHLSQCVKEEARAIINRIYTTRYNSSHVRTGDIQTYLARGGFVVVFQPLLSNSLARLYLQELVRENTNHSPQKHPTRNTRSRRSVPVELRANRTITTTSSVEFAMLQFTYDHIQEHVNEMLARISSSWCQLQNRERALWSGLFPINPSALASTILDQRVKARILGDVISVSNCPELGSDTRIILQNSMRVSGSTTRCYSRPLISIVSLNGSGTVEGQLGTDNELIMSRDLLEPCVANHKRYFLFGHHYVYYEDYRYVREIAVHDVGMISTYVDLNLTLLKDREFMPLQVYTRDELRDTGLLDYSEIQRRNQMHSLRFYDIDKVVQYDSGTAIMQGMAQFFQGLGTAGQAVGHVVLGATGALLSTVHGFTTFLSNPFGALAVGLLVLAGLVAAFFAYRYVLKLKTSPMKALYPLTTKGLKQLPEGMDPFAEKPNATDTPIEEIGDSQNTEPSVNSGFDPDKFREAQEMIKYMTLVSAAERQESKARKKNKTSALLTSRLTGLALRNRRGYSRVRTENVTGV"}}}
{"variants_of": "B1", "assay": "flow cytometry on cells; CHO-DSP1 cells transfected, permeabilized, immunostained with Cy5-conjugated mAb 93k; n = 2; parent: 100; read off a plot", "units": {"percent of parent": "% WT"}}
{"variant": "chain 3 H456A", "percent of parent": "~98"}
{"variant": "chain 3 E455A", "percent of parent": "~110"}
{"variant": "chain 3 V457A", "percent of parent": "~98"}
{"variants_of": "B1", "assay": "flow cytometry on cells; CHO-DSP1 cells transfected, permeabilized, immunostained with Cy5-conjugated mAb 93k; n = 2; parent: 100; read off a plot", "remark": "another data set of the same source", "units": {"screen value": "% WT"}}
{"variant": "chain 3 H456A", "screen value": "~120"}
{"variant": "chain 3 E455A", "screen value": "~120"}
{"variant": "chain 3 V457A", "screen value": "~120"}
{"variants_of": "B1", "assay": "flow cytometry on cells; CHO-DSP1 cells transfected, permeabilized, immunostained with Cy5-conjugated mAb 93k; n = 3; parent: 100; read off a plot", "units": {"screen value": "% WT"}}
{"variant": "chain 3 H456P", "screen value": "~120"}
{"variant": "chain 3 E455P", "screen value": "~110"}
{"variant": "chain 3 V457P", "screen value": "~48"}
{"variants_of": "B1", "assay": "flow cytometry on cells; CHO-DSP1 cells transfected, permeabilized, immunostained with Cy5-conjugated mAb 93k; n = 3; parent: 100; read off a plot", "remark": "another data set of the same source", "units": {"percent of parent": "% WT"}}
{"variant": "chain 3 H456P", "percent of parent": "~95"}
{"variant": "chain 3 E455P", "percent of parent": "~70"}
{"variant": "chain 3 V457P", "percent of parent": "~18"}
